Reference: article PMC2275143 (Nucleic Acids Research, 2008)

Molecular target: the molecule itself
Test: AUC

B1: Nep1 from Methanocaldococcus jannaschii (native protein) (enzyme, UniProt Q57977 2-205, looked up)
chain: TYNIILAKSALELIPEEIKNKIRKSRVYKYDILDSNYHYKAMEKLKDKEMRGRPDIIHISLLNILDSPINHEKKLNIYIHTYDDKVLKINPETRLPRNYFRFLGVMEKVLKGERNHLIKMEEKTLEDLLNEINAKKIAIMTKTGKLTHPKLLKEYDTFIIGGFPYGKLKINKEKVFGDIKEISIYNKGLMAWTVCGIICYSLSF
stoichiometry N: 2
